Source: US12497460B2, “Anti-MSR1 antibodies and methods of use thereof” (REGENERON PHARMACEUTICALS, INC., priority 2018, dated 2025)

T1: His9-hMSR1 (human MSR1 extracellular domain) (Homo sapiens, UniProt P21757)
T1 construct: human MSR1 extracellular domain expressed with a N-terminal nonahistidine tag; His9 (nonahistidine) (N); purchased R&D Systems 2708-MS
T1 sequence (P21757 77-451 limits assumed): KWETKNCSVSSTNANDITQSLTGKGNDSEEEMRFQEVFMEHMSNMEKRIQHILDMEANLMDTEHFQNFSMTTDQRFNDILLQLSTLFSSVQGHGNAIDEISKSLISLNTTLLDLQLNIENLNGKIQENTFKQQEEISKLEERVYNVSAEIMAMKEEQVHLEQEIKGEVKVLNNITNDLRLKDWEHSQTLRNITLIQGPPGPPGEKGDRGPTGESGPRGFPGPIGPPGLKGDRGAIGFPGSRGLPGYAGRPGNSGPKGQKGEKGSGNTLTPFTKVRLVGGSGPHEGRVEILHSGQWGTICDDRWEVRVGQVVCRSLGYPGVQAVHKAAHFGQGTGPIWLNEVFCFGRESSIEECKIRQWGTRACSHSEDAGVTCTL


Experiments:
[1] = system: LXR (THP1/LXR-Luc cells); assay: LXR-luciferase reporter bioassay (Example 31); type: cell-based, human; settings: 48 hours; for EC50: differentiated THP1/LXR-Luc cells; for S/N: signal to noise, ratio of RLU of standard one over standard eight
Text: Generation of assay cell line. To test the efficacy of anti-MSR1 antibody-LXR conjugates in vitro, a cell-based LXR responsive luciferase reporter assay was developed. To generate the assay cell line, a LXR regulated luciferase reporter gene [Cignal Lenti LXR Reporter (luc) kit (Qiagen, Cat #CLS-001 L)] was transduced into THP1 cells, and cells were selected for two weeks in puromycin. The lentivirus expresses the firefly luciferase gene under the control of a minimal CMV promoter and tandem repeats of the LXR transcriptional response element. The resulting cell line is referred to as THP1/LXR-Luc cells.
Assay protocol. THP1/LXR-Luc cells were seeded onto 96 well plates at 40,000 cells/well in media containing RPMI supplemented with 10% FBS and pencillin/streptomycin and subsequently differentiated with 200 nM Phorbol Myristate Acetate (PMA) for 3 days. After the 3-day differentiation period, three-fold serial dilutions of antibody drug conjugates, unconjugated antibodies, or free payloads in fresh media were added to the cells at final concentration ranging from 100 nM to 0.01 nM. Media alone served as a blank control. Forty-eight hours later, luciferase activity was determined after the addition of One-Glo™ reagent (Promega, Cat #E6130) to each well. Relative light units (RLUs) were measured on a Victor luminometer (PerkinElmer) and EC50 values were determined using a four-parameter logistic equation over a 10-point dose response curve (GraphPad Prism). The signal to noise (S/N) was determined by calculating the ratio of RLU of standard one over RLU of standard eight for each of the unconjugated anti-MSR1 antibodies or free payloads. “LP #” represents a linker-payload for which the corresponding structures are provided elsewhere herein, and “P #” represents a payload for which the corresponding structures are provided elsewhere herein.

[2] = target: T1, His9-hMSR1 (human MSR1 extracellular domain); assay: Biacore T200 surface plasmon resonance binding kinetics of anti-MSR1 antibody-drug conjugates and parental antibodies; settings: 25° C.; for kd: * = no dissociation observed, kd manually fixed at 1.00E−05
Experimental: The MSR1 antibodies disclosed herein were conjugated to various liver X receptor (LXR) payloads or various steroid payloads. This example describes how equilibrium dissociation constant (KD) values for human MSR1 reagents binding to human anti-MSR1 antibody-drug conjugates and their corresponding unconjugated parental antibodies were determined using a real-time surface plasmon resonance-based Biacore T200 biosensor.
All binding studies were performed in 10 mM HEPES, 300 mM NaCl, 3 mM EDTA, and 0.05% v/v Surfactant Tween-20, pH 7.4 (HBS-ET) running buffer at 25° C. The Biacore CM4 sensor chip surface was first derivatized by amine coupling with the goat anti-human Fcγ specific polyclonal antibody (Jackson ImmunoResearch Laboratories, Cat #BR-1008-39) to capture anti-MSR1 monoclonal antibodies. Binding studies were performed on human MSR1 extracellular domain expressed with a N-terminal nonahistidine tag (His9-hMSR1; R&D Systems, Cat #2708-MS).
The association rate (ka) and dissociation rate (kd) were determined by fitting the real-time binding sensorgrams to a 1:1 binding model with mass transport limitation using Scrubber 2.0c curve-fitting software. Binding dissociation equilibrium constant (KD) and dissociative half-life (t½) were calculated from the kinetic rates as: […]
Binding kinetics parameters for His9-hMSR1 binding to different anti-MSR1 antibody-LXR ADCs and their unconjugated parental antibodies at 25° C. are shown in Table 19. “LP1” represents a linker-payload for which the payload structure is provided in Example 11.
The binding studies were repeated with anti-MSR1 antibody H1H21234-N297Q and steroid linker payloads (LPs). “LP3” represents a linker-payload for which the structure is provided in Example 23, and “LP13” represents a linker-payload for which the structure is provided in Example 24.

[3] = Table 19, antibody-LXR ADCs and unconjugated antibodies

| Molecule | EC50 [1] [nM] | S/N [1] | ka [2, 3] [M⁻¹ s⁻¹] | kd ([2]; Table 19) | ka ([2]; Table 20, antibody-steroid ADCs and unconjugated antibody) [M⁻¹ s⁻¹] | kd ([2]; Table 20) [s⁻¹] |
| --- | --- | --- | --- | --- | --- | --- |
| H1H27739P-N297Q-LP1 (conjugate) VH: EVQLVESGGGLVQPGGSLRLSCTASGFTFSSYAMSWVRQAPGKGLEWVSAISGTGSSTYFTDSVKGRFAISRDNSKNTLYLQMNSLRAEDTAVYYCAKDGEWLSTVTLFDYWGQGTLVTVSS VL: EIVMTQSPATLSVSPGERATLSCRASQSVSSNLAWYQQKPGQAPRLLIYGASTRATGIPARFSGSGSGTDFTLTISSLQSEDFALYYCQQYFIWPPHPTFGPGTKVDIKR | 1.6 | 21.0 | 88800 | 0.000722 s⁻¹ | – | – |
| H1H27731P-N297Q-LP1 (conjugate) VH: QLQLQESGPGLVKPSETLSLTCTVSGGSISRISYYWGWIRQPPGKGLEWIGSIYDSGSTYYNPSLKSRVTISIDTSKNQFSLKLSSVTAADTAVYYCVRYSSSSAFAFDYWGQGTLVTVSS VL: DIQMTQSPSSVSASVGDRVTITCRASQGISSWLAWYQQKPGKAPKLLIYAASSLQSGVPSRFSGSGSGTDFTLTISSLQPEDFATYYCQQANSFPFTFGPGTKVDIKR | 1.46 | 15.5 | 128000 | 1.00E−05* s^−1 | – | – |
| H1H27754P-N297Q-LP1 (conjugate) VH: EVQLVESGGGLVQPGGSLRLSCAASGFTFRTYAMTWVRQAPGKGLDWVSAITGDGGNTYYADSVKGRFTISRDNSKNTLYLQMNSLRAEDTAIYYCAKDQRFSFALYYFDYWGQGTLVTVSS VL: DIQMTQSPSSVSASVGDRVTITCRASQGISSWLAWYQQKPGNAPKLLIYAAFSLQSGVPSRFSGSGSGTDFTLTISSLQPEDFATYYCQQANNFPWTFGQGTKVEIKR | 1.3 | 17.3 | 177000 | 1.00E−05* s^−1 | – | – |
| H1H27747P-N297Q-LP1 (conjugate) VH: QVQLVESGGAVVQPGRSLRLSCAASGFTFSYYGMHWVRQAPGKGLEWVAVISYDGSKKYYADSVKGRFTISRDNSKNTLYLQMNSLRAEDTAVYYCAKDLTVDFYYGMDVWGQGTTVTVSS VL: DIQMTQSPSSVSASVGDRVTITCRASQGISSWLAWYQQKPGKAPKLLIYATSSLQSGAPSRFSGSGSGTDFTLTISSLQPEDFATYFCQQANSFPYTFGQGTKLEIKR | 4.77 | 20.6 | 136000 | 0.000203 s⁻¹ | – | – |
| H1H27729P-N297Q-LP1 (conjugate) VH: QVQLVESGGGLVKPGGSLRLSCAASGFIFSDYYMSWIRQAPGKGLEWVSYISSSGTTIYGDSVKGRFTMSRDNAKNSLYLQMNSLRAEDTAVYYCARNYALFDYWGQGTLVTVSS VL: DIQMTQSPSSLSASVGDRVTITCQASQDISKYLNWYQQKPGKAPKLLIYYTSNLETGVPSRFSGSGSGTDFTFTISSLQPEDIATYYCHQSDYLPFTFGPGTKVDIKR | 1.64 | 14.5 | 54700 | 0.000718 s⁻¹ | – | – |
| H1H27734P-N297Q-LP1 (conjugate) VH: EVQLVESRGGLVQPGGSLRLSCAASGFTFSSYAMSWVRQAPGKGLEWVSAISGSGGSTFYADSVKGRFTISRDNSKNTVYLQMNSLRAEDTAVYYCAKALVLRFLEWLGDYWGQGTLVTVSS VL: DIQMTQSPSTLSASVGDRVTITCRASQSISSWLAWFQQKPGKAPKLLIYKASSLESGVPSRFSGSGSGTEFTLTISSLQPDDFATYYCQQYKSYWTFGQGTKVEIKR | 5.19 | 17.8 | 69300 | 0.000449 s⁻¹ | – | – |
| H1H21234N-N297Q-LP3 (conjugate) VH: QVQLQESGPGLVKPSETLSLTCTVTGGSISRNYWSWIRQPPGKGLEWIGYIYYSGSIDYNPSLKSRVTISVDTSKNQFSLKLSSMTAADTAVYYCARDRWNWKYGMDVWGQGTTVIVSS VL: EIVLTQSPGTLSLSPGERATLSCRASQTVRNNYLAWYHQKPGQAPRLLIYGASSRATGIPDRFSGSGSGTDFTLTISRLEPEDFTVYYCHQYGNSPWTFGQGTKMEIKR | – | – | – | – | 417000 | 1e-05 |
